Reference: patent US20040180409

Test system: T1, epitope-tagged (V5) full-length murine TLT-1 (TREM-like transcript-1) expressed in HEK293T cells
T1 sequence: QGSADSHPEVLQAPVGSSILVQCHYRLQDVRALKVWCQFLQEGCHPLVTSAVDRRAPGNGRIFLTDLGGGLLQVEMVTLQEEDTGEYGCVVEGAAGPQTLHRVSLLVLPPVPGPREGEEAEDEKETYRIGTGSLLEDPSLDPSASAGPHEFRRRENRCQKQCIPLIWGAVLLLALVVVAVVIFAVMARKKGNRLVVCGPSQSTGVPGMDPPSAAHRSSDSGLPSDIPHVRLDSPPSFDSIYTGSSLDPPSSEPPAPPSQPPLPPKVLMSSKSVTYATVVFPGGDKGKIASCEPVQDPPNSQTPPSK

Syk was tested, and the “tyrosine phosphorylation of TLT-1 (anti-V5 immunoprecipitation, antiphosphotyrosine immunoblot)” value was “TLT-1 is phosphorylated by Src but not Syk”.
